Patent publication US20150344570A1 (published 2015)

Legend:
[1] = biological target: FcγRIIIa extracellular domain with C-terminal His tag (human, UniProt P08637 17-208); assay: SPR (Biacore), relative binding activity; GpH7-A5/GpH7-B3/GpL16-k0 = 100
Target sequence in this assay (P08637 17-208): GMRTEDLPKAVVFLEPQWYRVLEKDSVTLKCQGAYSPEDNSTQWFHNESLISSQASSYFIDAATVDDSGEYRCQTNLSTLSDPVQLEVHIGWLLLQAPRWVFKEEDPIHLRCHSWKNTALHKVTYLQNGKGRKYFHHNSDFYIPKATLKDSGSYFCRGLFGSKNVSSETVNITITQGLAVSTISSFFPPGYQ

[2] = biological target: T1, FcγRIIIa extracellular domain with C-terminal His tag (human, UniProt P08637 17-208); assay: SPR (Biacore), ratio of KD for FcγRIIIa against GpH7-A5/GpH7-B3/GpL16-k0
T1 construct: extracellular domain; also called FcgRIIIa; 3a; not shown: His tag attached to the C terminus
Source text: Then, the present inventors introduced I332E into only one H chain, and assessed whether the Tm is elevated as compared to when I332E is introduced into both H chains. Expression vectors inserted with GpH7-A44 (SEQ ID NO: 49) and GpH7-B80 (SEQ ID NO: 50) resulting from the introduction of I332E into GpH7-A5 and GpH7-B3, respectively, were constructed. They were combined with GpH7-B3, GpH7-A5, and GpL16-k0 to express and prepare the following antibodies according to the method described in Reference Example 1: the heterodimerized antibodies GpH7-A5/GpH7-B80/GpL16-k0 and GpH7-A44/GpH7-B3/GpL16-k0 in which only one of the H chains was introduced with I332E, and the homodimerized antibody GpH7-A44/GpH7-B80/GpL16-k0 in which both of the H chains were introduced with I332E. […] Each antibody was assessed for the FcγRIIIa-binding activity according to the method described in Reference Example 2. In addition, the antibodies were compared for the Tm of CH2 domain by thermal shift assay according to the method described in Reference Example 5 (Tables 28 and 29).
Analysis of interaction between objective antibody and the FcγR was carried out using Biacore T100 (GE Healthcare). HBS-EP+ (GE Healthcare) was used as the running buffer, and the measurement temperature was set to 25° C. Chips produced by immobilizing the antigen peptide by the amine coupling method to a Series S Sencor Chip CM5 (GE Healthcare), or alternatively, chips produced by allowing preliminarily biotinylated antigen peptides to interact with and immobilize onto a Series S Sensor Chip SA (certified) (GE Healthcare) were used. Antibodies of interest were captured onto an antigen peptide-immobilized chip, and allowed to interact to each FcγR diluted with running buffer. To regenerate and repeatedly use the chip, the antibodies captured on the chip were washed off by reacting 10 mM glycine-HCl, pH 1.5.
The FcγR-binding activity of each antibody was assessed primarily using as an indicator the FcγR-binding activity and dissociation constant for FcγR.
T1 sequence (P08637 17-208): as above

Row | FcγRIIIa BINDING ACTIVITY [1] [%] | KD ratio [2] | Binder
1 | 151 | – | GpH7-TA4/GpH7-B3-15-02A/GpL16-k0 (antibody, human IgG1, kappa, H1 L234Y and G236W; H2 S298A) heavy 1: QVQLVQSGAEVKKPGASVTVSCKASGYTFTDYEMHWIRQPPGEGLEWIGAIDPKTGDTAYSESFQDRVTLTADKSTSTAYMELSSLTSEDTAVYYCTRFYSYTYWGQGTLVTVSSASTKGPSVFPLAPSSKSTSGGTAALGCLVKDYFPEPVTVSWNSGALTSGVHTFPAVLQSSGLYSLSSVVTVPSSSLGTQTYICNVNHKPSNTKVDKKVEPKSCDKTHTCPPCPAPEYLWGPSVFLFPPKPKDTLMISRTPEVTCVVVDVSHEDPEVKFNWYVDGVEVHNAKTKPREEQYNSTYRVVSVLTVLHQDWLNGKEYKCKVSNKALPAPIEKTISKAKGQPREPQVYTLPPSRKELTKNQVSLTCLVKGFYPSDIAVEWESNGQPENNYKTTPPVLDSDGSFFLYSKLTVDKSRWQQGNVFSCSVMHEALHNRYTQKSLSLSP heavy 2: not shown light: DIVMTQSPLSLPVTPGEPASISCQASESLVHSNRNTYLHWYLQKPGQSPQLLIYKVSNRFSGVPDRFSGSGSGTDFTLKISRVEAEDVGVYYCSQNTHVPPTFGQGTKVEIERTVAAPSVFIFPPSDEQLKSGTASVVCLLNNFYPREAKVQWKVDNALQSGNSQESVTEQDSKDSTYSLSSTLTLSKADYEKHKVYACEVTHQGLSSPVTKSFNRGEC
2 | – | 4.4 fold (KD of GpH7-A5/GpH7-B3/GpL16-k0 divided by KD of the antibody) | GpH7-A44/GpH7-B3/GpL16-k0 (antibody, human IgG1, kappa, Heterodimerized antibody with I332E in one H chain only) heavy 1: QVQLVQSGAEVKKPGASVTVSCKASGYTFTDYEMHWIRQPPGEGLEWIGAIDPKTGDTAYSESFQDRVTLTADKSTSTAYMELSSLTSEDTAVYYCTRFYSYTYWGQGTLVTVSSASTKGPSVFPLAPSSKSTSGGTAALGCLVKDYFPEPVTVSWNSGALTSGVHTFPAVLQSSGLYSLSSVVTVPSSSLGTQTYICNVNHKPSNTKVDKKVEPKSCDKTHTCPPCPAPELLGGPSVFLFPPKPKDTLMISRTPEVTCVVVDVSHEDPEVKFNWYVDGVEVHNAKTKPREEQYNSTYRVVSVLTVLHQDWLNGKEYKCKVSNKALPAPEEKTISKAKGQPREPQVYTLPPSRKELTKNQVSLTCLVKGFYPSDIAVEWESNGQPENNYKTTPPVLDSDGSFFLYSKLTVDKSRWQQGNVFSCSVMHEALHNRYTQKSLSLSP heavy 2: not shown light: DIVMTQSPLSLPVTPGEPASISCQASESLVHSNRNTYLHWYLQKPGQSPQLLIYKVSNRFSGVPDRFSGSGSGTDFTLKISRVEAEDVGVYYCSQNTHVPPTFGQGTKVEIERTVAAPSVFIFPPSDEQLKSGTASVVCLLNNFYPREAKVQWKVDNALQSGNSQESVTEQDSKDSTYSLSSTLTLSKADYEKHKVYACEVTHQGLSSPVTKSFNRGEC
3 | – | 7.1 fold (KD of GpH7-A5/GpH7-B3/GpL16-k0 divided by KD of the antibody) | GpH7-A44/GpH7-B80/GpL16-k0 (antibody, human IgG1, kappa) heavy 1: QVQLVQSGAEVKKPGASVTVSCKASGYTFTDYEMHWIRQPPGEGLEWIGAIDPKTGDTAYSESFQDRVTLTADKSTSTAYMELSSLTSEDTAVYYCTRFYSYTYWGQGTLVTVSSASTKGPSVFPLAPSSKSTSGGTAALGCLVKDYFPEPVTVSWNSGALTSGVHTFPAVLQSSGLYSLSSVVTVPSSSLGTQTYICNVNHKPSNTKVDKKVEPKSCDKTHTCPPCPAPELLGGPSVFLFPPKPKDTLMISRTPEVTCVVVDVSHEDPEVKFNWYVDGVEVHNAKTKPREEQYNSTYRVVSVLTVLHQDWLNGKEYKCKVSNKALPAPEEKTISKAKGQPREPQVYTLPPSRKELTKNQVSLTCLVKGFYPSDIAVEWESNGQPENNYKTTPPVLDSDGSFFLYSKLTVDKSRWQQGNVFSCSVMHEALHNRYTQKSLSLSP heavy 2: not shown light: DIVMTQSPLSLPVTPGEPASISCQASESLVHSNRNTYLHWYLQKPGQSPQLLIYKVSNRFSGVPDRFSGSGSGTDFTLKISRVEAEDVGVYYCSQNTHVPPTFGQGTKVEIERTVAAPSVFIFPPSDEQLKSGTASVVCLLNNFYPREAKVQWKVDNALQSGNSQESVTEQDSKDSTYSLSSTLTLSKADYEKHKVYACEVTHQGLSSPVTKSFNRGEC
